Consider 30 molecules from patent US20180305414A1.

For assay [1], the target named is human IgG (available from the Chemo-Sero-Therapeutic Research Institute) (human). Briefly: binding capacity; binder immobilised on agarose gel, 40 mg/mL human IgG, acid elution, A280.
Assay [2] shares this target. Briefly: binding capacity; binder immobilised on agarose gel, human IgG, acid elution, A280.
Assay [3] shares this target. Briefly: binding capacity; binder immobilised on agarose gel, human IgG.

B1: chimeric protein PL-021 containing immunoglobulin-binding domain 1 of Protein L (designed binder)
chain: MAQHDEAGLALETPEPEEEVTIKANLIFADGSTQNAEFKGTFAKAVSDAYAYADALKKDNGEYTVDVADKGLTLNIKFAGALPSKSKKILKEAKKLNKAQAPKKKK
Molecule B1 came in with an IgG Binding Capacity in assay [1] of 45.3 mg/mL gel.

B2: chimeric protein PL-014 containing immunoglobulin-binding domain 4 of Protein L (designed binder)
chain: MAQHDEAGLALETPEEPKEEVTIKVNLIFADGKTQTAEFKGTFEEATAEAYRYADLLAKVNGEYTADLEDGGYTINIKFAGALPSKSKKILKEAKKLNKAQAPKKKK
Regarding B2, the IgG Binding Capacity in assay [2] was found to be 57 mg/mL gel; in assay [1] it was 57.4 mg/mL gel.

B3: modified product PL-035 of immunoglobulin-binding domain 4 (designed binder)
chain: MAQHDEAGLALETPEEPREEVTIRVNLIFADGKTQTAEFKGTFEEATAEAYRYADLLAKVNGEYTADLEDGGYTINIKFAGALPSKSKKILKEAKKLNKAQAPKKKK
As for B3, in assay [2], the IgG Binding Capacity turned out to be 56.9 mg/mL gel.

B4: modified product PL-047 of immunoglobulin-binding domain 4 (designed binder)
chain: MAQHDEAGLALEKPEEPKEEVTIRVNLIFADGRTQTAEFKGTFEEATAEAYRYADLLAKVNGEYTADLEDGGYTINIKFAGALPSKSKKILKEAKKLNKAQAPKKKK
B4 had an IgG Binding Capacity in assay [2] of 59.2 mg/mL gel.

B5: modified product PL-048 of immunoglobulin-binding domain 4 (designed binder)
chain: MAQHDEAGLALEKPEEPKEEVTIRVNLIFADGRTQTAEFRGTFEEATAEAYRYADLLAKVNGEYTADLEDGGYTINIKFAGALPSKSKKILKEAKKLNKAQAPKKKK
As for B5, the IgG Binding Capacity in assay [2] was 57.9 mg/mL gel.

B6: modified product PL-058 of immunoglobulin-binding domain 4 (designed binder)
chain: MAQHDEAGLALEKPEEPREEVTIKVNLIFADGRTQTAEFRGTFEEATAEAYRYADLLAKVNGEYTADLEDGGYTINIKFAGALPSKSKKILKEAKKLNKAQAPKKKK
Take B6: in assay [2], the IgG Binding Capacity worked out at 58.6 mg/mL gel.

B7: modified product PL-050 of immunoglobulin-binding domain 4 (designed binder)
chain: MAQHDEAGLALEKPEEPREEVTIRVNLIFADGTTQTAEFKGTFEEATAEAYRYADLLAKVNGEYTADLEDGGYTINIKFAGALPSKSKKILKEAKKLNKAQAPKKKK
In assay [2], B7 yielded an IgG Binding Capacity of 59 mg/mL gel.

B8: modified product PL-052 of immunoglobulin-binding domain 4 (designed binder)
chain: MAQHDEAGLALEKPEEPREEVTIRVNLIFADGHTQTAEFKGTFEEATAEAYRYADLLAKVNGEYTADLEDGGYTINIKFAGALPSKSKKILKEAKKLNKAQAPKKKK
B8 gave an IgG Binding Capacity in assay [2] of 58.5 mg/mL gel.

B9: chimeric protein PL-023 containing immunoglobulin-binding domain 3 of Protein L (designed binder)
chain: MAQHDEAGLALETPEEPKEEVTIKVNLIFADGKIQTAEFKGTFEEATAKAYAYANLLAKENGEYTADLEDGGNTINIKFAGALPSKSKKILKEAKKLNKAQAPKKKK
As for B9, the IgG Binding Capacity in assay [2] and in assay [1] was 52.2 mg/mL gel throughout.

B10: modified product PL-024 of immunoglobulin-binding domain 4 (designed binder)
chain: MAQHDEAGLALETPEEPREEVTIRVNLIFADGRTQTAEFRGTFEEATAEAYRYADLLARVNGEYTADLEDGGYTINIRFAGALPSKSKKILKEAKKLNKAQAPKKKK
As to B10, the IgG Binding Capacity in assay [2] came out at 63.4 mg/mL gel. The same molecule showed an increase of binding capacity against PL-014 in assay [3] of 11%.

B11: modified product PL-053 of immunoglobulin-binding domain 4 (designed binder)
chain: MAQHDEAGLALEKPEEPREEVTIRVNLIFADGETQTAEFKGTFEEATAEAYRYADLLAKVNGEYTADLEDGGYTINIKFAGALPSKSKKILKEAKKLNKAQAPKKKK
In the case of B11, in assay [2], the IgG Binding Capacity was found to be 55.9 mg/mL gel.

B12: modified product PL-054 of immunoglobulin-binding domain 4 (designed binder)
chain: MAQHDEAGLALEKPEEPREEVTIRVNLIFADGQTQTAEFKGTFEEATAEAYRYADLLAKVNGEYTADLEDGGYTINIKFAGALPSKSKKILKEAKKLNKAQAPKKKK
Consider B12, for which the IgG Binding Capacity in assay [2] amounted to 58.4 mg/mL gel.

B13: modified product PL-038 of immunoglobulin-binding domain 4 (designed binder)
chain: MAQHDEAGLALERPEEPREEVTIRVNLIFADGRTQTAEFRGTFEEATAEAYRYADLLARVNGEYTADLEDGGYTINIRFAGALPSKSKKILKEAKKLNKAQAPKKKK
For B13, the IgG Binding Capacity in assay [2] amounted to 63.6 mg/mL gel. Moreover, the increase of binding capacity against PL-014 in assay [3] was 11%.

B14: modified product PL-061 of immunoglobulin-binding domain 3 (designed binder)
chain: MAQHDEAGLALETPEEPREEVTIRVNLIFADGRIQTAEFRGTFEEATAKAYAYANLLAKENGEYTADLEDGGNTINIKFAGALPSKSKKILKEAKKLNKAQAPKKKK
The molecule B14 displayed an IgG Binding Capacity in assay [2] of 59.8 mg/mL gel.

B15: modified product PL-057 of immunoglobulin-binding domain 4 (designed binder)
chain: MAQHDEAGLALEKPEEPREEVTIRVNLIFADGKTQTAEFRGTFEEATAEAYRYADLLAKVNGEYTADLEDGGYTINIKFAGALPSKSKKILKEAKKLNKAQAPKKKK
For the molecule B15, in assay [2], the IgG Binding Capacity worked out at 55.6 mg/mL gel.

B16: modified product PL-060 of immunoglobulin-binding domain 4 (designed binder)
chain: MAQHDEAGLALEKPEEPTEEVTIRVNLIFADGRTQTAEFKGTFEEATAEAYRYADLLAKVNGEYTADLEDGGYTINIKFAGALPSKSKKILKEAKKLNKAQAPKKKK
B16 gave an IgG Binding Capacity in assay [2] of 57.6 mg/mL gel.

B17: modified product PL-043 of immunoglobulin-binding domain 4 (designed binder)
chain: MAQHDEAGLALERPEEPKEEVTIKVNLIFADGKTQTAEFKGTFEEATAEAYRYADLLAKVNGEYTADLEDGGYTINIKFAGALPSKSKKILKEAKKLNKAQAPKKKK
As for B17, in assay [2], the IgG Binding Capacity is 59.3 mg/mL gel.

B18: modified product PL-049 of immunoglobulin-binding domain 4 (designed binder)
chain: MAQHDEAGLALEKPEEPREEVTIRVNLIFADGRTQTAEFRGTFEEATAEAYRYADLLAKVNGEYTADLEDGGYTINIKFAGALPSKSKKILKEAKKLNKAQAPKKKK
As to B18, the IgG Binding Capacity in assay [2] stood at 59.7 mg/mL gel.

B19: modified product PL-051 of immunoglobulin-binding domain 4 (designed binder)
chain: MAQHDEAGLALEKPEEPREEVTIRVNLIFADGLTQTAEFKGTFEEATAEAYRYADLLAKVNGEYTADLEDGGYTINIKFAGALPSKSKKILKEAKKLNKAQAPKKKK
In the case of B19, the IgG Binding Capacity in assay [2] was 57.3 mg/mL gel.

B20: modified product PL-026 of immunoglobulin-binding domain 4 (designed binder)
chain: MAQHDEAGLALEKPEEPREEVTIRVNLIFADGKTQTAEFKGTFEEATAEAYRYADLLAKVNGEYTADLEDGGYTINIKFAGALPSKSKKILKEAKKLNKAQAPKKKK
B20 displayed an IgG Binding Capacity in assay [2] of 57.8 mg/mL gel.

B21: chimeric protein PL-022 containing immunoglobulin-binding domain 2 of Protein L (designed binder)
chain: MAQHDEAGLALEKPEEPKEEVTIKVNLIFADGKTQTAEFKGTFEEATAKAYAYADLLAKENGEYTADLEDGGNTINIKFAGALPSKSKKILKEAKKLNKAQAPKKKK
In assay [1], B21 yielded an IgG Binding Capacity of 53.3 mg/mL gel.

B22: modified product PL-036 of immunoglobulin-binding domain 4 (designed binder)
chain: MAQHDEAGLALEKPEEPREEVTIRVNLIFADGRTQTAEFKGTFEEATAEAYRYADLLAKVNGEYTADLEDGGYTINIKFAGALPSKSKKILKEAKKLNKAQAPKKKK
Molecule B22 gave an IgG Binding Capacity in assay [2] of 59.1 mg/mL gel.

B23: modified product PL-056 of immunoglobulin-binding domain 4 (designed binder)
chain: MAQHDEAGLALEKPEEPREEVTIRVNLIFADGATQTAEFKGTFEEATAEAYRYADLLAKVNGEYTADLEDGGYTINIKFAGALPSKSKKILKEAKKLNKAQAPKKKK
Molecule B23 displayed an IgG Binding Capacity in assay [2] of 61.6 mg/mL gel.

B24: modified product PL-045 of immunoglobulin-binding domain 4 (designed binder)
chain: MAQHDEAGLALERPEEPKEEVTIKVNLIFADGRTQTAEFKGTFEEATAEAYRYADLLAKVNGEYTADLEDGGYTINIKFAGALPSKSKKILKEAKKLNKAQAPKKKK
In assay [2], B24 gave an IgG Binding Capacity of 60.6 mg/mL gel.

B25: modified product PL-055 of immunoglobulin-binding domain 4 (designed binder)
chain: MAQHDEAGLALEKPEEPREEVTIRVNLIFADGFTQTAEFKGTFEEATAEAYRYADLLAKVNGEYTADLEDGGYTINIKFAGALPSKSKKILKEAKKLNKAQAPKKKK
B25 had an IgG Binding Capacity in assay [2] of 57.3 mg/mL gel.

B26: modified product PL-046 of immunoglobulin-binding domain 4 (designed binder)
chain: MAQHDEAGLALEKPEEPREEVTIKVNLIFADGRTQTAEFKGTFEEATAEAYRYADLLAKVNGEYTADLEDGGYTINIKFAGALPSKSKKILKEAKKLNKAQAPKKKK
B26 displayed an IgG Binding Capacity in assay [2] of 59.7 mg/mL gel.

B27: modified product PL-059 of immunoglobulin-binding domain 4 (designed binder)
chain: MAQHDEAGLALEKPEEPREEVTIKVNLIFADGKTQTAEFRGTFEEATAEAYRYADLLAKVNGEYTADLEDGGYTINIKFAGALPSKSKKILKEAKKLNKAQAPKKKK
As to B27, in assay [2], the IgG Binding Capacity was found to be 56.1 mg/mL gel.

B28: modified product PL-027 of immunoglobulin-binding domain 4 (designed binder)
chain: MAQHDEAGLALETPEEPREEVTIRVNLIFADGRTQTAEFKGTFEEATAEAYRYADLLAKVNGEYTADLEDGGYTINIKFAGALPSKSKKILKEAKKLNKAQAPKKKK
Regarding B28, the IgG Binding Capacity in assay [2] is 58.6 mg/mL gel.

B29: modified product PL-044 of immunoglobulin-binding domain 4 (designed binder)
chain: MAQHDEAGLALEKPEEPKEEVTIKVNLIFADGRTQTAEFKGTFEEATAEAYRYADLLAKVNGEYTADLEDGGYTINIKFAGALPSKSKKILKEAKKLNKAQAPKKKK
Molecule B29 yielded an IgG Binding Capacity in assay [2] of 58.9 mg/mL gel.

B30: modified product PL-028 of immunoglobulin-binding domain 4 (designed binder)
chain: MAQHDEAGLALEKPEEPKEEVTIKVNLIFADGKTQTAEFRGTFEEATAEAYRYADLLARVNGEYTADLEDGGYTINIRFAGALPSKSKKILKEAKKLNKAQAPKKKK
With B30, the IgG Binding Capacity in assay [2] is 60.1 mg/mL gel. This molecule also registered an increase of binding capacity against PL-014 in assay [3] of 5%.
